Assay results as given in PMC7262672.
Like-named read-outs stand apart in the source and are kept apart here.

What was measured:
[1] = target: E. coli scaffold protein IscU (Escherichia coli) (UniProt P0ACD4); experiment: native MS
[2] = target: E. coli cysteine desulfurase IscS (Escherichia coli) (UniProt P0A6B7); experiment: native MS
[3] = target: E. coli scaffold protein IscU (Escherichia coli) (UniProt P0ACD4); experiment: native MS; remark: listed apart in the source
[4] = target: E. coli scaffold protein IscU (Escherichia coli) (UniProt P0ACD4); experiment: non-reducing SDS-PAGE with densitometry

Sequence of UniProt P0A6B7 (P0A6B7 whole entry): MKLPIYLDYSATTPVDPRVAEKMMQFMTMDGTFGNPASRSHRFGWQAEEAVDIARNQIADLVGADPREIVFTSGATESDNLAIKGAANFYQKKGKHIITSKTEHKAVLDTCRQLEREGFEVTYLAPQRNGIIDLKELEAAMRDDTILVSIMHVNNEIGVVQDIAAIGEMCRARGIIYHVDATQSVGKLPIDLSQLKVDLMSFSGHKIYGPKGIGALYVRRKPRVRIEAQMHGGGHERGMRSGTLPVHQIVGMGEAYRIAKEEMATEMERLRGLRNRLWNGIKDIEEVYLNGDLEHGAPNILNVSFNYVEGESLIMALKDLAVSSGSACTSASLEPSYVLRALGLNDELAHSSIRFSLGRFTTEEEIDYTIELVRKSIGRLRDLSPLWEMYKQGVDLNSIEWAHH

In the case of “E. coli scaffold protein IscU (from UniProt P0ACD4 1-128) (natural protein)”, the percent dimer (of the monomer-to-dimer ratio) [1] was 14%, the fraction of IscS2 lacking IscU [2] was 11% and the fraction of the IscU2–IscS2 complex [2] was 94%. For the same substance, the fraction of the IscU2–IscS2 species [2] was 86%, the fraction of the IscU-IscS2 complex [2] was 47% and the fraction of the IscU-IscS2 species [2] was 6%. For the same substance, the stoichiometry N (IscU per IscS dimer) [2] was 2, the percent dimer [3] was 59% and the percent dimer (of the monomer-to-dimer ratio) [3] was 22%. It also gave a stoichiometry N [3] of 2 and a percent dimer [4] of 65%.
